CN111196850A (BEIJING HUIZHI HEYUAN BIOTECHNOLOGY CO LTD, dated 2020)

What was measured:
[1] = target: rhTSLP-hFc (human); experiment: cell-based or functional assay
[2] = target: rhTSLP-hFc (human); experiment: competition ELISA: rhTSLP-hFc coated, antibody titrated against 2 μg/ml rhTSLPR-His, anti-His-HRP detection

B1: 嵌合抗体6K-3H (antibody, human IgG1, kappa)
heavy: not shown
light: DILLTQSPSSLSASLGGKVIITCKASQDINKYIAWYQHKPGKGLRLLIHYTSTLEPGIPSRFSGSGSGRDYSFSISNLEPEDIATYYCLHYDNLLTFGDGTKLELKRTVAAPSVFIFPPSDEQLKSGTASVVCLLNNFYPREAKVQWKVDNALQSGNSQESVTEQDSKDSTYSLSSTLTLSKADYEKHKLYACEVTHQGLSSPVTKSFNRGEC
Q: With B1 as the binder, how does the “IC50, 抑制TSLP刺激的293F转染细胞STAT5-荧光素酶活性” value [1] read?
A: 0.26 µg/mL

Q: And the IC50 [2]?
A: 0.609 µg/mL
